The target in the experiment is T1, PD1 antigen obtained by cleaving PD1-mFc with TEV protease, labeled with biotin (UniProt Q15116 25-170, limits assumed, labeled with biotin (site not stated)).
T1 construct: also called antigen PD1
Put plainly: Fortebio Octet, biotin-PD1 on SA sensor, antibody in solution. From the text: 2. […] The dissociation of antigen and antibody were also in PBST.
A general note: In BLI a coated tip is dipped into the sample, and binding shifts an interference pattern.

Among the data in US20190321466A1 (CTTQ AKESO SHANGHAI BIOMED TECH, published 2019) are Kd, koff and kon values, retold here.

T1 sequence (Q15116 25-170 limits assumed): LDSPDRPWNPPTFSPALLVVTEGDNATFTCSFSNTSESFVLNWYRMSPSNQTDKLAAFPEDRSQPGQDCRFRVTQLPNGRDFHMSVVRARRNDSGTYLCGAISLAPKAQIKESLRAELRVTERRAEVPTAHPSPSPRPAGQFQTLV

B1: monoclonal antibody 14C12 (secreted by hybridoma cell line LT003) (antibody, V domains shown)
VH: EVKLVESGGGLVKPGGSLKLSCAASGFAFSSYDMSWVRQTPEKRLEWVATISGGGRYTYYPDSVKGRFTISRDNARNTLYLQMSSLRSEDTALYYCANRYGEAWFAYWGQGTLVTVSA
VL: DIKMTQSPSSMYASLGERVTFTCKASQDINTYLSWFQQKPGKSPKTLIYRANRLVDGVPSRFSGSGSGQDYSLTISSLEYEDMGIYYCLQYDEFPLTFGAGTKLEL
notes: Mouse antibody purified from hybridoma supernatant; also called PD1-14C12
Turning to B1, the Kd was 0.0181 nM, the off-rate (koff) amounted to 6.12e-06 s⁻¹ and the kon was 338000 M⁻¹ s⁻¹.

A word on the Kd: it is the free concentration of one partner at which half of the binding sites on the other are occupied at equilibrium, for simple one-to-one binding. Higher therefore signals a looser complex. By koff is commonly meant the rate constant with which the complex falls apart. The low end stands for slow dissociation, the high end for fast dissociation. In general, kon refers to the second-order rate constant of association.
